Results: patent US20250277023A1

Molecular target: CHO-PD-L1 (UniProt Q9NZQ7)
Experiment: FACS binding; Fig. 23

Chain of CHO-PD-L1 (Q9NZQ7 19-290): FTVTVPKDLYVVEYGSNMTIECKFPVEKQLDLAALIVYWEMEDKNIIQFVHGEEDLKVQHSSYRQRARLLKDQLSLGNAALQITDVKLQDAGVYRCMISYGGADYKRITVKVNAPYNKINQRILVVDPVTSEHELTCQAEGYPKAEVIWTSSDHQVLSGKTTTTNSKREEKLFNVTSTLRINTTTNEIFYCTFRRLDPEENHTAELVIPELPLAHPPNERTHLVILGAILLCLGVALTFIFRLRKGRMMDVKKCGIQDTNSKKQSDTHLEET

EC50: 0.494 nM
Substance: R0514(avelumab-mIgG2a)
